Experimental data taken from paper PMC1888729.

T1: His-tagged U2AF35 (HEK-293E), Q01081
T1 chain: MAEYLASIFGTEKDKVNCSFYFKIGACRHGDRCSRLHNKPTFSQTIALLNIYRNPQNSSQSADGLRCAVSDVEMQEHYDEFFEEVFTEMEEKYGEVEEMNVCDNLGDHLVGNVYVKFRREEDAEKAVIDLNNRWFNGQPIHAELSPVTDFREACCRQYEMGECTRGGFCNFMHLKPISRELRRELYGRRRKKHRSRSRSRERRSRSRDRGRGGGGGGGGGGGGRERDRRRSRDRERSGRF

T2: U2AF35 (recombinant human, baculovirus-infected SF9 cells) (human), Q01081
T2 chain: T1 chain

B1: U2AF65 (co-purified from HEK-293E), P26368 1-475 (natural protein)
chain: MSDFDEFERQLNENKQERDKENRHRKRSHSRSRSRDRKRRSRSRDRRNRDQRSASRDRRRRSKPLTRGAKEEHGGLIRSPRHEKKKKVRKYWDVPPPGFEHITPMQYKAMQAAGQIPATALLPTMTPDGLAVTPTPVPVVGSQMTRQARRLYVGNIPFGITEEAMMDFFNAQMRLGGLTQAPGNPVLAVQINQDKNFAFLEFRSVDETTQAMAFDGIIFQGQSLKIRRPHDYQPLPGMSENPSVYVPGVVSTVVPDSAHKLFIGGLPNYLNDDQVKELLTSFGPLKAFNLVKDSATGLSKGYAFCEYVDINVTDQAIAGLNGMQLGDKKLLVQRASVGAKNATLVSPPSTINQTPVTLQVPGLMSSQVQMGGHPTEVLCLMNMVLPEELLDDEEYEEIVEDVRDECSKYGLVKSIEIPRPVDGVEVPGCGKIFVEFTSVFDCQKAMQGLTGRKFANRVVVTKYCDPDSYHRRDFW
B2: U2AF65 (recombinant human, baculovirus-infected SF9 cells), P26368 1-475 (natural protein)
chain: B1 chain

How the values were obtained:
[1] = target: T1, His-tagged U2AF35 (HEK-293E), Q01081; assay: pull-down; His-tagged U2AF35 expressed in 293E cells, lysate (50 mM Tris-HCl pH 8, 1% NP-40, 5 mM imidazole) on Ni-NTA agarose 1 h at 4°C, wash 0.5 M NaCl, eluted with 0.5 M imidazole; western blot; amounts by Coomassie stain against BSA; conditions: remark: other sources report otherwise
[2] = target: T2, U2AF35 (recombinant human, …); assay: co-purification; human U2AF65/35 heterodimer purified from baculovirus-infected SF9 cells as described previously; conditions: remark: other sources report otherwise

Binder	stoichiometry N (U2AF35 per U2AF65) [1]	stoichiometry N (U2AF35 per U2AF65) [2]
B1	3.5	
B2		1
